The results in this text go back to patent US20220119534A1 (DRAGONFLY THERAPEUTICS, published 2022).

Experiment [1] concerns the target T1, Human CLEC12A-His (human, UniProt Q5QGZ9 65-265).
T1 construct: Recombinant soluble protein made in house (Dragonfly Tx); The hCLEC12A spot of the HuProt array is written under this molecule as well; also called hCLEC12A-His; hCLEC12A; not shown: His tag
T1 sequence: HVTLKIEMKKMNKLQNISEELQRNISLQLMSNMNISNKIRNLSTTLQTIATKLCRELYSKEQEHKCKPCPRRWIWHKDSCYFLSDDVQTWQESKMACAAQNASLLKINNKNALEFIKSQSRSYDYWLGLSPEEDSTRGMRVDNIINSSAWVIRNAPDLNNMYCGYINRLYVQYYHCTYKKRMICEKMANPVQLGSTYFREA
Nature of the experiment: SPR Biacore 8K 37 C; TriNKET captured on anti-hFc chip, hCLEC12A-His as analyte; 1:1 fit; control, n=4. Background: Surface plasmon resonance follows binding to a sensor surface in real time, without labels.

Experiment [2] addresses T2, mFc-hNKG2D (human, UniProt P26718 73-216).
T2 construct: extracellular domain; Made in house (Dragonfly Tx); the order of tag and ECD follows the name mFc-hNKG2D; also called mFc-tagged human NKG2D; not shown: mouse Fc tag
T2 sequence (looked up): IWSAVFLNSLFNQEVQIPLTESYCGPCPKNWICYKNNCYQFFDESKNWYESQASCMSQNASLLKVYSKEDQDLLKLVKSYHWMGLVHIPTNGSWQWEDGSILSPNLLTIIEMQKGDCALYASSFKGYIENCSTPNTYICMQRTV
Nature of the experiment: SPR Biacore 8K 37 C; mFc-hNKG2D captured on anti-mFc chip, TriNKET as analyte; steady state fit; control, n=3.

The target of experiment [3] is T2, mFc-hNKG2D. Description: SPR Biacore 8K 37 C; mFc-hNKG2D captured on anti-mFc chip, TriNKET as analyte; 1:1 kinetic fit; control sample, n=3.
Description: (§1) Association was monitored for 60 seconds and dissociation was monitored for 60 seconds. Surfaces were regenerated between cycles with three pulses of 10 mM glycine-HCl, pH 1.7 injected for 20 seconds at 100 μL/min. HBS-EP+ (1×) buffer was used throughout the experiment. Data were analyzed using Biacore 8K Insight evaluation software (GE Healthcare).
For experiment [4], the target named is T2, mFc-hNKG2D. Nature of the experiment: SPR Biacore 8K 37 C; mFc-hNKG2D captured on anti-mFc chip, TriNKET as analyte; steady state fit; control sample, n=3.
Description: as §1
For experiment [5], the target named is T3, Human CD16a V158 (FcγRIIIa V158) (human, UniProt P08637 17-208, biotinylated (site not stated)).
T3 construct: V158 is the allele name in mature numbering; also called hCD16aV; hCD16a V158
T3 sequence (P08637 17-208 F176V limits assumed): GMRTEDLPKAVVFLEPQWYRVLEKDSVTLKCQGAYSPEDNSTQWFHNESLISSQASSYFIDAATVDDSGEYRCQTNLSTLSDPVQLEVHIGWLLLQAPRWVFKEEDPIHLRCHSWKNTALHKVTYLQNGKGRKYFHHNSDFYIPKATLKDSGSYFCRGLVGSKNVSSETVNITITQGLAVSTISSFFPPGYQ
Nature of the experiment: SPR; biotinylated CD16a V158 captured on SA chip, TriNKET as analyte; 1:1 kinetic fit; after 4 wks 40 C in CST pH 7.0, n=3.

Experiment [6] deals with T3, Human CD16a V158 (FcγRIIIa V158). Nature of the experiment: SPR; biotinylated CD16a V158 captured on SA chip, TriNKET as analyte; 1:1 kinetic fit; after 4 wks 40 C in phosphate/citrate/NaCl pH 7.8.
Description: Each injection cycle consisted of association, dissociation and regeneration steps. Association consisted of 150 seconds of ligand injection, dissociation was monitored for 300 seconds and then the surface was regenerated between cycles with 2 mM sodium hydroxide injected for 5 seconds. All steps were executed at a flow rate of 30 μL/min. 1× HBS-EP+ buffer solution was used as a running/sample dilution buffer. Data were analyzed using Biacore 8K Insight evaluation software (GE Healthcare).
Experiment [7] addresses T4, Human CLEC12A expressed on cells (Ba/F3-hCLEC12A, PL21, HL60) (human, UniProt Q5QGZ9 1-265).
T4 construct: Ba/F3 cells transduced with human CLEC12A; PL21 and HL60 AML lines express it endogenously; also called cell surface expressed CLEC12A
T4 sequence: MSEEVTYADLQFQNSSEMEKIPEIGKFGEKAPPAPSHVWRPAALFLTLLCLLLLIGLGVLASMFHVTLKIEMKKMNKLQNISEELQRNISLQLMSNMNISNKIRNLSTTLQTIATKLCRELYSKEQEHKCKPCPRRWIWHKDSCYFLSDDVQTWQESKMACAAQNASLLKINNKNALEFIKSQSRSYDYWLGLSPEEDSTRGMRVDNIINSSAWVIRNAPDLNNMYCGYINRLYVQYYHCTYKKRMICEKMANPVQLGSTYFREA
Nature of the experiment: flow cytometry on PL21 AML cells. Background: In flow cytometry, cells or beads pass a laser one at a time.
Description: The EC50 values were derived from the cell binding curves using GraphPad Prism software (four parameter logistic non-linear regression curve fitting model).

Experiment [8] addresses T5, Human CLEC12A-His (recombinant, K244 WT) (human, UniProt Q5QGZ9 65-265).
T5 construct: Made in house (Dragonfly Tx); also called hCLEC12A; hCLEC12A-His; not shown: His tag
T5 sequence: T1 sequence
Description: SPR 37C, two-state fit (ka1), average.

Experiment [9] has as its target T5, Human CLEC12A-His (recombinant, K244 WT). Description: SPR 37C, AB0089 captured on anti-hFc, two-state fit (kd1).
Description: Briefly, human Fc specific antibodies were covalently immobilized at a density ˜8000-10000 resonance units (RU) on carboxy methyl dextran matrix of a CM5 biosensor chip via amine-coupling chemistry to create an anti-hFc IgG chip. […] Association was monitored for 300 seconds and dissociation was monitored for 600 seconds. Surfaces were regenerated between cycles with three pulses of 10 mM glycine-HCl, pH 1.7 injected for 20 seconds at 100 μl/min. HBS-EP+ (1×) with 0.1 mg/ml BSA was used as running buffer throughout the experiment. Experiments were performed at physiological temperature of 37° C. To obtain kinetic rate constants and overall binding affinity, double-referenced data were fit to a two-state kinetic model using Biacore 8K Insight Evaluation software (Cytiva).
Experiment [10] addresses T6, Human CLEC12A-His (human, UniProt Q5QGZ9 65-265).
T6 construct: Recombinant soluble protein made in house; also called hCLEC12A-His; hCLEC12A; not shown: His tag
T6 sequence: T1 sequence
Description: SPR; control sample (CST pH 7.0 study).

Experiment [11] deals with T7, mFc-hNKG2D (human, UniProt P26718 73-216).
T7 construct: extracellular domain; Recombinant mFc-tagged NKG2D dimer, made in house; also called human NKG2D; not shown: mouse Fc tag
T7 sequence (looked up): T2 sequence (looked up)
Nature of the experiment: SPR; control sample (CST pH 7.0 study).

Experiment [12] has as its target T8, Human CD16a V158 (human, UniProt P08637 17-208, biotinylated).
T8 construct: Bought recombinant receptor; also called hCD16a (V158); hFcγRIIIa V158
Description: SPR; control sample (CST pH 7.0 study).

Experiment [13] addresses T6, Human CLEC12A-His. Description: SPR; control sample (pH 8 stress study).
Experiment [14] addresses T7, mFc-hNKG2D. Description: SPR; control sample (pH 8 stress study).
Experiment [15] addresses T8, Human CD16a V158. Description: SPR; control sample (pH 8 stress study).

Substitutions are numbered along the chain they refer to. Numbers in names are those of the source. Where “and” joins values, the source holds several entries; their conditions need not be identical. Equal entries are not always repeated.

T8 sequence (P08637 17-208 F176V limits assumed): as the sequence (P08637 17-208 F176V limits assumed) above

B1: F3'-1602 TriNKET (bispecific antibody, human IgG1, kappa)
chain: QLQLQESGPGLVKPSETLSLTCTVSGFSLTNYGLHWIRQPPGKCLEWIGVIWSGGKTDYNPSLKSRVTISKDTSKNQFSLKLSSVQAADTAVYYCAKYDYDDSLDYWGQGTLVTVSSGGGGSGGGGSGGGGSGGGGSDIQMTQSPSSLSASVGDRVTITCHASQNINFWLSWYQQKPGKAPKLLIYEASNLHTGVPSRFSGSGSGTRFTLTISSLQPEDIATYYCQQSHSYPLTFGCGTKLEIKGSDKTHTCPPCPAPELLGGPSVFLFPPKPKDTLMISRTPEVTCVVVDVSHEDPEVKFNWYVDGVEVHNAKTKPREEQYNSTYRVVSVLTVLHQDWLNGKEYKCKVSNKALPAPIEKTISKAKGQPREPRVYTLPPCRDELTKNQVSLTCLVKGFYPSDIAVEWESNGQPENNYKTTPPVLVSDGSFTLYSKLTVDKSRWQQGNVFSCSVMHEALHNHYTQKSLSLSPG
heavy: EVQLVESGGGLVKPGGSLRLSCAASGFTFSSYSMNWVRQAPGKGLEWVSSISSSSSYIYYADSVKGRFTISRDNAKNSLYLQMNSLRAEDTAVYYCARGAPIGAAAGWFDPWGQGTLVTVSSASTKGPSVFPLAPSSKSTSGGTAALGCLVKDYFPEPVTVSWNSGALTSGVHTFPAVLQSSGLYSLSSVVTVPSSSLGTQTYICNVNHKPSNTKVDKKVEPKSCDKTHTCPPCPAPELLGGPSVFLFPPKPKDTLMISRTPEVTCVVVDVSHEDPEVKFNWYVDGVEVHNAKTKPREEQYNSTYRVVSVLTVLHQDWLNGKEYKCKVSNKALPAPIEKTISKAKGQPREPQVCTLPPSRDELTENQVSLTCLVKGFYPSDIAVEWESNGQPENNYKTTPPVLDSDGSFFLYSWLTVDKSRWQQGNVFSCSVMHEALHNHYTQKSLSLSPG
light: DIQMTQSPSSVSASVGDRVTITCRASQGISSWLAWYQQKPGKAPKLLIYAASSLQSGVPSRFSGSGSGTDFTLTISSLQPEDFATYYCQQGVSFPRTFGGGTKVEIKRTVAAPSVFIFPPSDEQLKSGTASVVCLLNNFYPREAKVQWKVDNALQSGNSQESVTEQDSKDSTYSLSSTLTLSKADYEKHKVYACEVTHQGLSSPVTKSFNRGEC
notes: Trispecific F3' format: CLEC12A scFv-Fc paired with NKG2D Fab-Fc; Stressed and control samples of the stability studies are the same molecule; also called AB0237
As usually defined, the Kd is a measure of binding affinity in units of concentration. A high value points to weaker binding. The koff is the rate constant with which the complex falls apart. Broadly, the kon is a measure of how fast the partners come together. Regarding B1, the Kd was found to be 0.638 nM in experiment [1]; 710 nM in [2]; 661 nM in experiment [3]; 664 nM in [4]; 213 nM in [5]; 216 nM in [6]. Moreover, the koff turned out to be 0.000433 s⁻¹ in experiment [1], 0.139 s⁻¹ in experiment [3], 0.0225 s⁻¹ in experiment [5] and 0.0209 s⁻¹ in [6]. Further, the on-rate constant (kon) in [1] was found to be 678000 M⁻¹ s⁻¹; in experiment [3], 211000 M⁻¹ s⁻¹; in experiment [5], 105000 M⁻¹ s⁻¹; in experiment [6] it was 96700 M⁻¹ s⁻¹.

B2: AB0089 TriNKET (bispecific antibody, human IgG1, kappa)
chain: B1 chain with S53V, K56A, K71V, Y98G, D101G, S103T, R207D, I220F
heavy: B1 heavy
light: B1 light
notes: F3' format heterodimer of three chains; human IgG1 Fc with EW-RVT and Y349C/S354C mutations; also called AB0089 Lot AB0089-002; CLEC12A TriNKET AB0089
In general, EC50 refers to the concentration needed to bring the measured effect to its halfway point. Read a high EC50 as a less potent agent. On to B2, for which, in experiment [7], the midpoint of the response, the EC50, lay at 0.45 nM. The kon in [8] amounted to 1.04e+07 M⁻¹ s⁻¹. For the same molecule, the dissociation rate constant (koff) in experiment [9] was 0.0426 s⁻¹ and 0.0449 s⁻¹ and 0.0432 s⁻¹.

B3: AB0192 TriNKET (other)
chain: EVQLVESGGGVVQPGGSLRLSCAASGFTFNAFGMHWVRQAPGKCLEWVAFISSGSTSIYYANTVKGRFTISRDNSKNTLYLQMNSLRAEDTAVYYCARDGYPTGGAMDYWGQGTSVTVSSGGGGSGGGGSGGGGSGGGGSDIQMTQSPSSLSASVGDRVTITCKASQDIYNYLSWFQQKPGKAPKPLIYRANILVSGVPSRFSGSGSGQDYTFTISSLQPEDIATYYCLQFDAFPFTFGCGTKLEIKGSDKTHTCPPCPAPELLGGPSVFLFPPKPKDTLMISRTPEVTCVVVDVSHEDPEVKFNWYVDGVEVHNAKTKPREEQYNSTYRVVSVLTVLHQDWLNGKEYKCKVSNKALPAPIEKTISKAKGQPREPRVYTLPPCRDELTKNQVSLTCLVKGFYPSDIAVEWESNGQPENNYKTTPPVLVSDGSFTLYSKLTVDKSRWQQGNVFSCSVMHEALHNHYTQKSLSLSPG
heavy: B1 heavy
light: B1 light
notes: the condition stands under assay; also called AB0192 Lot AB0192-005
For B3, the Kd in experiment [10] stood at 1.81 nM; in experiment [11], 588 nM; in experiment [12], 171 nM; in experiment [13] it was 1.68 nM; in experiment [14], 588 nM; in [15] it was 171 nM. Further, the koff in experiment [10] worked out at 0.0014 s⁻¹; in [11], 0.122 s⁻¹; in experiment [12], 0.0199 s⁻¹; in [13] it was 0.00129 s⁻¹; in experiment [14], 0.122 s⁻¹; in experiment [15], 0.0199 s⁻¹. For the same molecule, the kon was 776000 M⁻¹ s⁻¹ in [10]; 208000 M⁻¹ s⁻¹ in experiment [11]; 117000 M⁻¹ s⁻¹ in [12]; 771000 M⁻¹ s⁻¹ in experiment [13]; 208000 M⁻¹ s⁻¹ in [14]; 117000 M⁻¹ s⁻¹ in [15].
